Data set [1] concerns HCT 116 colon cancer cell line. The experiment in a line: In vitro cytotoxicity, WST-1 viability test. In kind it is cell-based. To be noted: mean of 3 independent experiments. How it is done:
The cytotoxicity of different drug conjugates was evaluated using the HCT 116 colon cancer cell line and was compared to the cytotoxicity of the free drug (doxorubicin, mitomycin C or paclitaxel). Cells were seeded at 8 000 cells/well and maintained in Mc Coy medium supplemented with 10% fetal bovine serum for 24 hours before treatment. Cells were incubated with increasing concentrations of drugs or conjugates at 37°C, 5% CO2. The medium was then removed and a WST-1 test (purchased from Roche) was performed according to the manufacturer's instructions. The cytotoxicity of the tested conjugates was expressed as the molar concentration inhibiting 50% of the cell viability (IC50), calculated using Graph Pad Prism 3.02 software. Experimental data are presented as the mean of three independent experiments performed in duplicate.
Table 1: Drug concentration that inhibits 50% of cell viability (IC50) using the HCT 116 cell line. Data represent the mean value of 3 independent experiments. After the indicated exposure time at 37°C, cells were rinsed and a viability assay (WST1 test) was performed to determine IC50.
For orientation: Tetrazolium assays rely on reduction of a dye to a coloured formazan, in cell work by metabolically active cells.

The nature of data set [2]: In vitro human plasma stability of drug conjugates (HPLC). The note with it: for remaining at 6 h, 100 µM: 100 µM paclitaxel conjugates, read-out: plasma stability (% conjugate). Format: in vitro ADME. As for the experimental part:
Human plasma (citrated human blood was centrifuged at 600 g for 10 min at +4°C, plasma was recovered and aliquots stored at -20°C) was used to assess the stability of the following drug conjugates: Suc-ALAL-doxorubicin, Suc-βALAL-doxorubicin, TA-ALAL-doxorubicin, Suc-βALAL-MMC, TA-ALAL-MMC, Suc-βALAL-paclitaxel and TA-ALAL-paclitaxel. The drug conjugates (50 µM doxorubicin or MMC, 100 µM paclitaxel conjugates) were incubated at 37°C with human plasma either for 0, 2 or 6 hours, 50 µL of sample were collected at each time point and extraction was performed immediately.
For the doxorubicin conjugate and metabolites, 150 µL of acetonitrile was added to the 50 µL samples. Samples were vortexed and centrifuged for 10 min at 13 000 rpm at room temperature. 100 µL were harvested and 200 µL of 2% ammonium formate pH 4.0 were added before centrifugation (10 min at 13 000 rpm). HPLC analysis (at 560 nm) was performed using the supernatant.
For MMC conjugate and metabolites were extracted prior to HPLC analysis. 100 µL of acetonitrile was added to the 50 µL of sample, prior to vortexing (10 seconds) and centrifugation (10 min at 13 000 rpm) at room temperature. 50 µL of supernatant was recovered and mixed with 150 µL of Phosphate Buffer Saline (PBS) 1X. After centrifugation (10 min at 13 000 rpm), 150 µL of supernatant were collected for HPLC analysis. Stability and reactivation were evaluated by HPLC analysis (at 270 nm) and MMC conjugate and metabolite peak areas were compared.
For the paclitaxel conjugate and metabolites, 150 µL of acetonitrile was added to 50 µL of sample, vortexed and centrifuged for 10 min at 13 000 rpm at room temperature. 100 µL of supernatant was recovered and mixed with 100 µL of water. After centrifugation (10 min at 13 000 rpm), the supernatant was collected for HPLC analysis (at 230 nm).

The nature of data set [3]: In vivo toxicity of doxorubicin conjugates in LS 174T tumor-bearing nude mice (i.v.). To be noted: for equitoxic dose: i.v. As for the experimental part: Toxicity studies were conducted in LS 174T tumor-bearing nude mice following intravenous administration. […] LS 174T tumors were established by a subcutaneous implantation of cells (3 x 10^7 cells injected) in the right flank of 7 weeks old female NMRI nude mice (Janvier, France). The day of the first injection, animals were randomly assigned to groups of 6 animals. The TA-ALAL-doxorubicin and Suc-ALAL-doxorubicin conjugates were dissolved in saline and Suc-βALAL-doxorubicin was prepared in glucose 5%. All conjugates were delivered by bolus intravenous injection (i.v.) in the lateral tail vein at 10 µL/g. During the course of the experiment, clinical signs and body weight were controlled at least twice a week. The experiment was repeated twice. Table 2: In vivo toxicity of TA-ALAL-doxorubicin conjugate compared to Suc-βALAL-doxorubicin and Suc-ALAL-doxorubicin in LS 174T tumor-bearing mice.

For data set [4], the system named is LS 174T tumors. As to the kind of experiment: In vivo anti-tumoral efficacy of doxorubicin conjugates in the LS 174T tumor model. Also on record: species or system NMRI nude mice. An excerpt:
(§1) Treatments were initiated when the tumors had reached a size of 100 mm^3 (calculated using the following formula: [length x width^2]/2). […] During the course of the experiment, clinical signs, body weight and tumor volume were controlled twice a week. Results are presented as the evolution of mean tumor volume as a function of time. Optimal T/C (ratio of mean tumor volume of treated versus control mice) values were used as a measure of treatment efficacy. The optimal T/C% reflects the maximal tumor growth inhibition achieved. The experiment was repeated twice.

The test system of data set [5] is LS 174T tumors. As to the kind of experiment: In vivo anti-tumoral efficacy of mitomycin C conjugates in the LS 174T tumor model. More on the design: species or system NMRI nude mice.
Description: as §1
The in vivo anti-tumoral efficacy of TA-ALAL-MMC was compared to that of Suc-βALAL-MMC in the LS 174T tumor model. The establishment of the LS 174T tumors and the treatments were carried out as previously described in Example V. TA-ALAL-MMC conjugate was dissolved in saline and Suc-βALAL-MMC conjugate was prepared in 3% DMSO in Sodium phosphate buffer (15mM). […] During the course of the experiment, clinical signs, body weight and tumor volume were controlled twice a week. The experiment was repeated twice. Table 4: Anti-tumoral efficacy of TA-ALAL-MMC compared to Suc-βALAL-MMC in the LS 174T tumor model.

[6] abbreviates: Experiment 1, dose 67.7 µmol/kg i.v., LS 174T tumor-bearing mice.
Where [7] appears, read: Experiment 1, dose 67.7 µmol/kg i.v., groups of 6 animals.
[8] abbreviates: Experiment 2, LS 174T tumor-bearing mice.
[9] abbreviates: Experiment 1, dose 67.7 µmol/kg i.v.
[10] abbreviates: Experiment 2, dose 77.4 µmol/kg i.v.
The mark [11] stands for this setting: after 6 hours in human plasma at 37°C.
Where [12] appears, read: Experiment 1, dose 60 µmol/kg i.v.
The mark [13] stands for this setting: Experiment 2, dose 80 µmol/kg i.v.

Like-named read-outs stand apart in the source and are kept apart here. Bounds are passed on as bounds.

Turning to `COc1cccc2c1C(=O)c1c(O)c3c(c(O)c1C2=O)CC(O)(C(=O)CO)CC3OC1CC(NC(=O)C(CC(C)C)NC(=O)C(C)NC(=O)C(CC(C)C)NC(=O)C(C)NC(=O)CCC(=O)O)C(O)C(C)O1` (centres unmarked) [Suc-ALAL-dox, Suc-ALAL-doxorubicin], in data set [1] (incubation time 48 h), the IC50 was 10 µM. In addition, in data set [2] (human, plasma), the remaining at 2 h, 50 µM stood at 80% and the remaining at 6 h, 50 µM was determined as 54%. In addition, in data set [3] (setting [6]), the “Maximal body weight loss %” value came out at 36.1%. The compound also came in with a dead animals in data set [3] (setting [7]) of 3. The animals died with LS 174T tumors [4] (setting [7]) came out at 3 animals died.

For `CC(=O)O[C@H]1C(=O)[C@@]2(C)[C@H]([C@H](OC(=O)c3ccccc3)[C@]3(O)C[C@H](OC(=O)[C@H](O)[C@@H](NC(=O)c4ccccc4)c4ccccc4)C(C)=C1C3(C)C)[C@]1(OC(C)=O)CO[C@@H]1C[C@@H]2O` [paclitaxel], the IC50 in data set [1] (Homo sapiens, incubation time 4h + 72 h) is 0.02 µM.

In data set [1] (Homo sapiens, incubation time 48 h), `COc1cccc2c1C(=O)c1c(O)c3c(c(O)c1C2=O)C[C@@](O)(C(=O)CO)C[C@@H]3O[C@H]1C[C@H](N)[C@H](O)[C@H](C)O1` [doxorubicin (dox), doxorubicin] came in with an IC50 of 0.034 µM.

As to `COc1cccc2c1C(=O)c1c(O)c3c(c(O)c1C2=O)CC(O)(C(=O)CO)CC3OC1CC(NC(=O)C(CC(C)C)NC(=O)C(C)NC(=O)C(CC(C)C)NC(=O)CCNC(=O)CCC(=O)O)C(O)C(C)O1` (centres unmarked) [Suc-βALAL-dox, Suc-βALAL-doxorubicin], in data set [1] (incubation time 48 h), the IC50 was > 10 µM. In data set [2] (human, plasma), this compound registered a remaining at 2 h, 50 µM of 77.2% and a remaining at 6 h, 50 µM of 47.5%. Moreover, the equitoxic dose in data set [3] (setting [8]) is given as 47.4 µmol/kg. Besides, the “Maximal body weight loss %” value in data set [3] (mouse, in vivo, iv) came to 15.9%. In the data set with LS 174T tumors [4] (setting [9]), the “Optimal T/C (%)” value amounted to 52%. Besides, the “Optimal T/C (%)” value in the data set with LS 174T tumors [4] (Experiment 2, dose 47.4 µmol/kg i.v.) turned out to be 52%.

Consider `COc1cccc2c1C(=O)c1c(O)c3c(c(O)c1C2=O)CC(O)(C(=O)CO)CC3OC1CC(NC(=O)C(CC(C)C)NC(=O)C(C)NC(=O)C(CC(C)C)NC(=O)C(C)NC(=O)C2C(C(=O)O)C(C(=O)O)C2C(=O)O)C(O)C(C)O1` (centres unmarked) [TA-ALAL-dox, TetraAcid-ALAL-doxorubicin], for which the IC50 in data set [1] (incubation time 48 h) is > 10 µM. Further, in data set [2] (after 2 hours in human plasma at 37°C, 50 µM doxorubicin conjugates, read-out: percentage of intact conjugate), the remaining at 2 h, 50 µM is 83%. Also, the remaining at 6 h, 50 µM in data set [2] (after 6 hours in human plasma at 37°C, 50 µM doxorubicin conjugates, read-out: percentage of intact conjugate) is 67%. Besides, the “Maximal body weight loss %” value in data set [3] (setting [6]) is listed as 13.7%; in data set [3] (Experiment 2, dose 55.1 µmol/kg i.v.), 11.3%; in data set [3] (setting [10]), 17.9%. Further, the equitoxic dose in data set [3] (setting [8]) came out at 77.4 µmol/kg. Besides, the “Optimal T/C (%)” value came out at 42% in the data set with LS 174T tumors [4] (setting [9]) and 36% in the data set with LS 174T tumors [4] (setting [10]).

On to `CC(=O)O[C@H]1C(=O)[C@@]2(C)[C@H]([C@H](OC(=O)c3ccccc3)[C@]3(O)C[C@H](OC(=O)[C@H](OC(=O)C(CC(C)C)NC(=O)C(C)NC(=O)C(CC(C)C)NC(=O)C(C)NC(=O)C4C(C(=O)O)C(C(=O)O)C4C(=O)O)[C@@H](NC(=O)c4ccccc4)c4ccccc4)C(C)=C1C3(C)C)[C@]1(OC(C)=O)CO[C@@H]1C[C@@H]2O` (some centres unmarked) [TA-ALAL-paclitaxel, TetraAcid-ALAL-paclitaxel], for which the IC50 in data set [1] (incubation time 4h + 72 h) was 10 µM. In addition, in data set [2] (setting [11]), the remaining at 6 h, 100 µM turned out to be 43%.

With `CC(=O)O[C@H]1C(=O)[C@@]2(C)[C@H]([C@H](OC(=O)c3ccccc3)[C@]3(O)C[C@H](OC(=O)[C@H](OC(=O)C(CC(C)C)NC(=O)C(C)NC(=O)C(CC(C)C)NC(=O)CCNC(=O)CCC(=O)O)[C@@H](NC(=O)c4ccccc4)c4ccccc4)C(C)=C1C3(C)C)[C@]1(OC(C)=O)CO[C@@H]1C[C@@H]2O` (some centres unmarked) [Suc-βALAL-paclitaxel], the IC50 in data set [1] (incubation time 4h + 72 h) was found to be 0.762 µM. In data set [2] (setting [11]), the remaining at 6 h, 100 µM stood at 41%.

Take Suc-βALAL-mitomycin C [Suc-βALAL-MMC]: in data set [1] (incubation time 24 h), the IC50 was found to be 67 µM. Moreover, in data set [2] (after 6 hours in human plasma at 37°C, 50 µM MMC conjugates), the “% of conjugates remaining” value worked out at 73%. In addition, the “Maximal body weight loss %” value amounted to 14.5% in the data set with LS 174T tumors [5] (setting [12]) and 15.9% in the data set with LS 174T tumors [5] (setting [13]). For the same compound, the “Optimal T/C (%)” value is 48% in the data set on LS 174T tumors [5] (setting [12]) and 43% in the data set on LS 174T tumors [5] (setting [13]).

In the case of `CO[C@@]12[C@H](COC(N)=O)C3=C(C(=O)C(C)=C(N)C3=O)N1C[C@@H]1N[C@@H]12` [Mitomycin C (MMC), mitomycin C], it took 5 µM to reach half-maximal inhibition in data set [1] (incubation time 24 h) (IC50).

A word on the IC50: it is the concentration that gives 50% inhibition.

The values above are taken from patent EP1977765A1, “Peptide prodrugs” (Diatos, priority 2007, dated 2008).
